# System: MS2 coat protein
# Experiment: apparent KD of MS2 coat protein; designed switch direction (-1 OFF switch, 1 ON switch): -1; higher = weaker reporter binding
# Method in brief: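 For each design, the apparent KD is the median over clusters of curves fitted to normalised cluster fluorescence. Clusters held RNA switches with common flanks, transcribed on Illumina chips by stalled E. coli RNA polymerase. These were titrated with SNAP-549-labelled MS2 coat protein, doubling from 0.7 or 1.5 nM to 3 µM, without input, with 200 uM small-molecule ligand, or with an oligonucleotide input.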
# [1] = input ligand: microRNA oligo, concentration not stated
# [2] = Eterna round: R95, input ligand: microRNA oligo, concentration not stated
# [3] = Eterna round: R95, input ligand: FMN 200 uM
# [4] = Eterna round: R95, input ligand: none
Sequence,apparent KD of MS2 coat protein (input ligand: FMN 200 uM) [µM],apparent KD of MS2 coat protein (input ligand: none) [µM],apparent KD of MS2 coat protein [1] [µM],apparent KD of MS2 coat protein [2] [µM],apparent KD of MS2 coat protein [3] [µM],apparent KD of MS2 coat protein [4] [µM]
"GCUAAGGUAGGAUAUUGCGACGUGAACAUGAGGAUCACCCAUGUCUGGUCUGACAGGCAUCAAGAAGGGCCAGUCU [Eternabot (L2) Solution 30] (Eterna round: R97, puzzle: Exclusion 5)",0.0497,0.0627,,,,
"GCUAGGAAUGUCAGGAUAUGCAGAUCCUUGGAUCUGCAGAAGGGACAUGAGGAUCACCCAUGUGCUAACCUAGC [Mat - Exclusion 4 - JL Mod - D7] (Eterna round: R97, puzzle: Brourd's mod of Exclusion 4)",0.11,0.0243,,,,
"GCUAUGCAAGGAUAUACAAGAUUAUGACAAGCGUGGAAACGACAUGAGGAUCACCCAUGUAGAAGGUGUUAUGC [Eternabot (L2) Solution 56] (Eterna round: R97, puzzle: Exclusion 2)",0.0581,0.0655,,,,
"GCUCAACAUGAGGAUCACCCAUGUCAGGAUAUGCGAAUUUCAUCAAAAGAUGAAAUUUGCAGAAGGGACUGAGC [Omei Ex1 A31] (Eterna round: R97, puzzle: Exclusion 1)",0.0272,0.022,,,,
"GCUCCAGGAGGAUAUGCAUUCGAAAACAUGAGGAUCACCCAUGUAGGUGUCCACGUGCGAGCAGAAGGCCUAAAAC [Riqu] (Eterna round: R97, puzzle: Exclusion 5)",0.286,0.646,,,,
"GCUGCGCGCUGUCGGGCGUCUGGUCUUGGAGGGAUAGACACAUGAGGAUCACCCAUGUUUCGGGUGUUCUUUCUAUA [JR_Sensorv2_tov2_Sub1512] (Eterna round: R96, puzzle: Sensor v2, turn-off variant 2)",0.187,0.183,0.118,,,
"GCUGGACGAGGAUAUGCAUUCGUGCUUCGGCACGUAAGGUCACAUGAGGAUCACCCAUGUAGAAGGUGUCCAGC [E2/6-B2] (Eterna round: R97, puzzle: Exclusion 2)",0.0241,0.0184,,,,
"GCUGGUCGAGGAUAUACAAUCGUGCUUCGGCACGUAAGGUCACAUGAGGAUCACCCAUGUAGAAGGUGACCAGC [E2/2-B1] (Eterna round: R97, puzzle: Exclusion 2)",0.0577,0.0207,,,,
"GCUGGUCGAGGAUAUACAUGAGGAUCACCCAUGUGGUUACGUGACGAUAGUCACGAAUGUAGAAGGCGACCAGC [E3/4-A1] (Eterna round: R97, puzzle: Exclusion 3)",2.2,0.295,,,,
"GCUGGUCGAGGAUAUGCAUAUACUGGAUACAGUGGAAGGUCACAUGAGGAUCACCCAUGUAGAAGGCGACCAGC [EX2 #36] (Eterna round: R97, puzzle: Exclusion 2)",0.634,0.527,,,,
"GCUUCGGCAGGAUAUACAAUGAAGUUGAGAAAUCGGCUUCGACAUGAGGAUCACCCAUGUAGAAGGGUUGAAGU [-26.3, -24 kcal, A 32% 3, 3 bis] (Eterna round: R97, puzzle: Exclusion 2)",0.0363,0.0486,,,,
"GCUUCUGGGCAAGGAUAUCCUGCGCUGUUCUGGUUCGUGUCUGUCACAUGAGGAUCACCCAUGUGGGAGAAGGUGCCUGUGGCG [Design 67] (Eterna round: R96, puzzle: Exclusion NG 2)",0.0209,0.0248,0.017,,,
"GCUUGAGCUGUGAGGAUAUUUCGAGUGAAAGCUUGAGAGAAGGCACAUGAGGAUCACCCAUGUAAGGUUCGAGU [-26, -23.9 kcal, A 28%, 1bis-1bis] (Eterna round: R97, puzzle: Brourd's mod of Exclusion 4)",0.0136,0.0132,,,,
"GCUUGUAGAGGAUAUACGAGGGCCCGAGCGGAUAACACCGCACAUGAGGAUCACCCAUGUAGAAGGCUACCACC [Riquinza] (Eterna round: R96, puzzle: Exclusion 2)",0.331,0.0279,0.0191,,,
GCUUGUAGAGGAUAUACGAGGGCCCGAGCGGAUAACACCGCACAUGAGGAUCACCCAUGUAGAAGGCUACCACC [Riquinza] (puzzle: Exclusion 2),,,,0.0208,,
"GCUUGUGGGCAAGGAUAUCCUACGCUGUUCUGGUUCGUGUCUGUCACAUGAGGAUCACCCAUGUGGGAGAAGGUGCCUUUGGUG [Design 63] (Eterna round: R96, puzzle: Exclusion NG 2)",0.0137,0.0162,0.0127,,,
"GCUUUUCUUUUCCUUUCUUACAUGAGGAUCACCCAUGUUUCUUGUCGUGCUCGCGUUGCUCGUCUGUCUGUCUGUUG [salish99_TOv1_r3_077(!)] (puzzle: Sensor v3, turn-off variant 1)",,,,0.0351,0.0444,0.0508
"GGAACGACAGGAUAUACAUGAGGAUCACCCAUGUGAGGAAGAGUAAAGUGUGAAGGAGGUAGAAGGGUCAAGAA [AK-MS2ROC-r4-exclusion3-3] (Eterna round: R97, puzzle: Exclusion 3)",0.0636,0.0388,,,,
GGAAGACAUGAGGAUCACCCAUGUAAGGAUAUCGGAGGUAAGGGAGGAAGGAGAUAGGCGAGAAGGUACAGGUG [JR_Exclu1_Sub094] (puzzle: Exclusion 1),,,,0.0355,0.0472,0.053
GGAAUACAUGAGGAUCACCCAUGUAAGGAUAUGCUGAAUAACACGGAAUAAUCGUGCAGCAGAAGGUACAAAGG [Mat - Mod of my Eli Mod D45] (puzzle: Exclusion 1),,,,0.0863,,
"GGACAACAUGAGGAUCACCCAUGUCAGGAUAUGACGGCGUCGGCGAAAGCGGAGGCGGUCAGAAGGGACGGUAA [AK-MS2ROC-r4-exclusion1-10.1] (Eterna round: R97, puzzle: Exclusion 1)",0.115,0.0519,,,,
"GGACUGAAGCUAGGAUAUCCCGUGUGAUCACGAGGAGAAGGAGCGCACGGGUAGUCAACAUGAGGAUCACCCAUGUACAGUCCA [Laditiqu] (Eterna round: R96, puzzle: Exclusion NG 1)",0.0501,0.0206,0.0154,,,
"GGAGAGGUAGGAUAUGGACCUUAGAACAUGAGGAUCACCCAUGUAGGACCACAUGAUUUGCGAGAAGGACCAGUCC [AK-MS2ROC-r4-exclusion5-7] (Eterna round: R97, puzzle: Exclusion 5)",0.363,0.655,,,,
"GGAGCCUUAGGAUAUACAUGAGGAUCACCCAUGUGAUGUCGAAGCAAGGGUCUCCUAGGUAGAAGGAAGACAAU [Eternabot (L1) Solution 90] (Eterna round: R97, puzzle: Exclusion 3)",0.0194,0.0179,,,,
"GGAGUUAGAGAGGAUAUGGAGGAGAGGCCAAUUCCAGAAGGUUCAACAUGAGGAUCACCCAUGUAUUUUCCUCA [AK-MS2ROC-r4-exclusion6-2] (Eterna round: R97, puzzle: Exclusion 6)",0.0256,0.0338,,,,
"GGAUAAAACCGAGGAUAUACGUAUCACUAACGAGUAGAAGGCGGACAUGAGGAUCACCCAUGUGAGUUCUCAAUAAGAAACACG [Prohibition 64 - Jieux - Exclusion NG 1] (Eterna round: R96, puzzle: Exclusion NG 1)",0.519,0.174,0.0851,,,
"GGAUAAAACUGAGGAUAUACGUAUCACUAACGAGUAGAAGGCAGACAUGAGGAUCACCCAUGUGAGUUCUCAAUAAGAAACACG [Prohibition 65 - Jieux - Exclusion NG 1] (Eterna round: R96, puzzle: Exclusion NG 1)",0.0749,0.0512,0.0435,,,
"GGAUAUAAGGAAGGAUAUGAGCGCAACUGACGAUCAGAAGGUCCACAUGAGGAUCACCCAUGUGAUCUAUCAAUAUUAUACAUG [Prohibition 94 - Jieux - Exclusion NG 1] (Eterna round: R96, puzzle: Exclusion NG 1)",0.264,0.115,0.0529,,,
"GGAUAUAGGCGAGGAUAUACGCACCACUAACUAGUAGAAGGCGCACAUGAGGAUCACCCAUGUGAUUUCUCAAUAUGAUACACG [Prohibition 71 - Jieux - Exclusion NG 1] (Eterna round: R96, puzzle: Exclusion NG 1)",0.218,0.183,0.107,,,
"GGAUCGAAUGUGAGGAUAUGCUGGUCCUUGGAUCAGCAGAAGGCACAUGAGGAUCACCCAUGUGAUACCGAUCC [Eli bmx4 4.70] (Eterna round: R97, puzzle: Brourd's mod of Exclusion 4)",0.255,0.381,,,,
